Test results reported in patent publication US20230133141A1 (HONG KONG POLYTECHNIC UNIVERSITY, published 2023).
Non-standard residues stand in square brackets, D forms with d.

Key:
[1] = molecular target: T1, KLGFFKR motif-deficient (dm) ITGA2 (UniProt P17301 30-1181); assay: co-immunoprecipitation with anti-CRT antibody, Western blot
T1 construct: whole, on cells; Deletion of the seven residues KLGFFKR; also called A2dm; motif-deficient ITGA2
T1 sequence (looked up): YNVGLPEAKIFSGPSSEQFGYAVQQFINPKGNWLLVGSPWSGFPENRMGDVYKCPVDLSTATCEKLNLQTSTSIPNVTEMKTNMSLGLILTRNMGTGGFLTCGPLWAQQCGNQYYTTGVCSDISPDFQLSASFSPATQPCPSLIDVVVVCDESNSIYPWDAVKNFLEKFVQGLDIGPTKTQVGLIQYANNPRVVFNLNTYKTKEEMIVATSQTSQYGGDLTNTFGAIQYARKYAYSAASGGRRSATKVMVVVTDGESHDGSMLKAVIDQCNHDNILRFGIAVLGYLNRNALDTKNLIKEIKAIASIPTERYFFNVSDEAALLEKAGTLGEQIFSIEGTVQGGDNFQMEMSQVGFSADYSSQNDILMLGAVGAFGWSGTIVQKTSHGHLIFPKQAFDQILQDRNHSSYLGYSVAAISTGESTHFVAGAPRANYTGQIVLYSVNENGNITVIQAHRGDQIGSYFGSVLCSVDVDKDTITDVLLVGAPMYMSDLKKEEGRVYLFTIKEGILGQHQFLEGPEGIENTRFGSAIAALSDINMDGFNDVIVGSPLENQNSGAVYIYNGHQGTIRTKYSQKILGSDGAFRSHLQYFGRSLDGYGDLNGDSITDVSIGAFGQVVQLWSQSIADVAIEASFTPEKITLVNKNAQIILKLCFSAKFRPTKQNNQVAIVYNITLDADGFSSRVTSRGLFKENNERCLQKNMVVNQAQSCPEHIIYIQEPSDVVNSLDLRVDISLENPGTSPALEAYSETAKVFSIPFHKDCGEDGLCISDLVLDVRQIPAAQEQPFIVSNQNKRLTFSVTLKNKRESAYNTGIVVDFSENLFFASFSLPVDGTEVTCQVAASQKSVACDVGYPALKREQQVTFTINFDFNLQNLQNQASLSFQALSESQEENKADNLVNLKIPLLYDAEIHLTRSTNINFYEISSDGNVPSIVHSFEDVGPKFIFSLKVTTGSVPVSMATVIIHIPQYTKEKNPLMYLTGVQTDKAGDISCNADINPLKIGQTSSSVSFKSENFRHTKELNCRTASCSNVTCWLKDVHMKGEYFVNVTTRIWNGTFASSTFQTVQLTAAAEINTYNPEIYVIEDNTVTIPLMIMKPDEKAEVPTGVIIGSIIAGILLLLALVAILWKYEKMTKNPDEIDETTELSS

[2] = molecular target: T2, full-length ITGA2 (UniProt P17301 30-1181, limits assumed); assay: co-immunoprecipitation with anti-CRT antibody from cell lysate, Western blot
T2 construct: whole, on cells; Whole protein expressed in cells; cells were lysed for co-immunoprecipitation; Any tag of the pCMV-ITGA2-CH plasmid is not described; also called integrin ITGA2
T2 sequence (looked up): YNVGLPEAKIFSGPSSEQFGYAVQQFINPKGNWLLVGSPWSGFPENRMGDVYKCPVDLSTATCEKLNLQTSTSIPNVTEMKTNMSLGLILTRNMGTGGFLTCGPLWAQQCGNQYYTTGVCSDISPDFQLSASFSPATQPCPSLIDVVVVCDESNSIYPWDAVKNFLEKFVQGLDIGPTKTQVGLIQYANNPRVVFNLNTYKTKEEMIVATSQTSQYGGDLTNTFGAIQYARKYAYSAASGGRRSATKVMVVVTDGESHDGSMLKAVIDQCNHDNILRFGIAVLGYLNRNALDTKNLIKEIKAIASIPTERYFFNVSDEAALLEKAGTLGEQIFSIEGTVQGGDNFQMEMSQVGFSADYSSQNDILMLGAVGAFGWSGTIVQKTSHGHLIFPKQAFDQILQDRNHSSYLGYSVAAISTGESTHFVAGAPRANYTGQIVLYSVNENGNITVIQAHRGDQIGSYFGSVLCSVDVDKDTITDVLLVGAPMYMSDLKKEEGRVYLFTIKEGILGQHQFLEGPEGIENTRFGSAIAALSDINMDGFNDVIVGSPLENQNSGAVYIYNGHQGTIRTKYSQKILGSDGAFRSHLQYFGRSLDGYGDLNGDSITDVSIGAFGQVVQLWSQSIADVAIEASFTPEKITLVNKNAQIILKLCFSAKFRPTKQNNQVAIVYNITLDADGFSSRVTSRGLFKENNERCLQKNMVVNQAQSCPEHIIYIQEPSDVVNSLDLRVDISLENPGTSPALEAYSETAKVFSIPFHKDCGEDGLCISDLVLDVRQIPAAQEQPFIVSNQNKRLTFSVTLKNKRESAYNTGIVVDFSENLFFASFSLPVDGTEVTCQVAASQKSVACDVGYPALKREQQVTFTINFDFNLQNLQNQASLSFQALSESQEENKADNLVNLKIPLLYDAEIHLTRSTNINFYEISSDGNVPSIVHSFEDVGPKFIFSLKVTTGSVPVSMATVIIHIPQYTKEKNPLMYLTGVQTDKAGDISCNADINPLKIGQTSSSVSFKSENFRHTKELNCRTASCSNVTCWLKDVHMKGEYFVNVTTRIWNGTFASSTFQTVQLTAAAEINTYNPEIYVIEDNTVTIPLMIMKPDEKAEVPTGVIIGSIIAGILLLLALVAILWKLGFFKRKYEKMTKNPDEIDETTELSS

[3] = molecular target: T2, full-length ITGA2; assay: cell-based or functional assay

Row | Binder | binding result [1] | binding result [2] | EC50 of reversing chemoresistance in BCSCs in the presence of DOX (MTS assay) [3] [nM]
1 | calreticulin (CRT) (other, UniProt P27797 18-417, looked up, Endogenous protein in cell lysate; pulled down with anti-CRT antibody) EPAVYFKEQFLDGDGWTSRWIESKHKSDFGKFVLSSGKFYGDEEKDKGLQTSQDARFYALSASFEPFSNKGQTLVVQFTVKHEQNIDCGGGYVKLFPNSLDQTDMHGDSEYNIMFGPDICGPGTKKVHVIFNYKGKNVLINKDIRCKDDEFTHLYTLIVRPDNTYEVKIDNSQVESGSLEDDWDFLPPKKIKDPDASKPEDWDERAKIDDPTDSKPEDWDKPEHIPDPDAKKPEDWDEEMDGEWEPPVIQNPEYKGEWKPRQIDNPDYKGTWIHPEIDNPEYSPDPSIYAYDNFGVLGLDLWQVKSGTIFDNFLITNDEAYAEEFGNETWGVTKAAEKQMKDKQDEEQRLKEEEEDKKRKEEEEAEDKEDDEDKDEDEEDEEDKEEDEEEDVPGQAKDEL | no binding | binds | 
2 | Ac-[dR][dE][dP][dV][dC][dL][dC][dR]G[dI][dV][dW][dR][dQ][dV][dA][dP][dP][dF]G[dL][dE][dS][dR][dR][dR][dQ][dR][dR][dK][dK][dR]-NH2 (cysteine pairing not given here) [DRI-TAT-SP peptide (D-retro-inverso form of TAT-SP)] |  |  | 2300
